Consider eight molecules from US20210070872A1 (AGENUS, published 2021).

Assay [1] addresses purified recombinant human GITR protein (Example 1) (human) (UniProt Q9Y5U5). In words: SPR (BIAcore), huGITR immobilized on CM5, analyte 12.5-200 nM.
The target of assay [2] is T1, human GITR D60A mutant on 1624-5 cells (human, UniProt Q9Y5U5 26-241).
T1 chain: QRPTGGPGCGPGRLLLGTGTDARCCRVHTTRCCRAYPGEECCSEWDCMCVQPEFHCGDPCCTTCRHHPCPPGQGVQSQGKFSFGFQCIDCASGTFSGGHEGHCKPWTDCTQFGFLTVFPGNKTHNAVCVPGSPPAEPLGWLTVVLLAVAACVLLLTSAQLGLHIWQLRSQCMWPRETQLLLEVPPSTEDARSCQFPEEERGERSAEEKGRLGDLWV
Description: flow cytometry on 1624-5 cells, 2 µg/ml, MFI ratio to polyclonal antibody. As to the method:
(§1) An average MFI ratio (“AMFI ratio”) was calculated based on the individual MFI ratios for all the mutants. FIG. 34A is a table summarizing the binding of Hum231#2, three germline variants (pab1967, pab1975 and pab1979) and the reference antibody m6C8 to1624-5 cells expressing human GITR alanine mutants. An individual MFI ratio that is above 60% of the AMFI ratio is considered to indicate similar binding, after normalization, of that of the polyclonal antibody and is represented by “+” in FIG. 34A. An individual MFI ratio that is between 30% and 60% of the AMFI ratio is represented by “+/−” in FIG. 34A. An individual MFI ratio that is below 30% of the AMFI ratio is represented by “−” in FIG. 34A.
(§2) All the mean fluorescence intensity (MFI) values were calculated as the mean of two measurements. […] The percentage of binding of an antibody to the GITR alanine mutants relative to the wild type GITR was calculated by dividing a particular MFI ratio for the GITR alanine mutants by the corresponding MFI ratio for the wild type (e.g., dividing MFI ratio_{Hum231#2, D60A} by MFI ratio_{Hum231#2, WT}). The percentage of reduction in binding was determined by calculating, e.g., 100%*(1−(MFI ratio_{Hum231#2, D60A}/MFI ratio_{Hum231#2, WT})).

Assay [3] has as its target T2, human GITR G63A mutant on 1624-5 cells (human, UniProt Q9Y5U5 26-241).
T2 chain: T1 chain with A35D, G38A
The assay is described as above. As to the method: as §1, §2

Assay [4] deals with T3, GITR antigen (R&D systems, di-sulfide-linked homodimer; 689-GR) (human, UniProt Q9Y5U5 26-161).
T3 construct: Bought
T3 sequence: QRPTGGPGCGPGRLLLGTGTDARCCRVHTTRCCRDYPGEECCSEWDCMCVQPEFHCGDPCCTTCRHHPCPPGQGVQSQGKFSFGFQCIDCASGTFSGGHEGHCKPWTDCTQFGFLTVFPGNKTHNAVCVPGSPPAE
Description: SPR (BIAcore T100/T200), antibody captured via anti-human Fab, GITR antigen 40/10/2.5 nM, 1:1 model. As to the method: All interactions were analyzed at 25° C. using 1× DPBS (PAA, H15-002) plus P20 (0.05%, Pierce, 28320) as running buffer. Anti-GITR antibodies (8 μg/ml in running buffer) were captured to the chip surface of a CM5 sensor chip (GE Healthcare, Series S CM5, BR-1005-30) via an immobilized anti-human Fab antibody (GE Healthcare, Fab Capture Kit, 28958325). To detect unspecific interactions of the GITR antigen, antibody capture was only performed in flow cell 2, whereas in flow cell 1 only the capturing antibody was immobilized. In addition, an unrelated antibody (anti-IL-1β; SK48E26; International Publication No. WO 95/001997) was used to assess specificity of GITR binding. After capture of the anti-GITR antibodies GITR antigen (R&D systems, di-sulfide-linked homodimer; 689-GR) was run through both flow cells in different amounts (40 nM, 10 nM and 2.5 nM) for each antibody. Also a blank curve (running buffer only) was included in each run. Association was run for 90 s and dissociation for 600 s with a flow rate of 10 μl/min. After each run a regeneration step was performed with 10 mM Glycine pH2.0 (GE Healthcare, BR-1003-55) for 60 s with 30 μl/min. Binding curves were evaluated using BIAcore® T200 evaluation software version 2.0.1 applying a Langmuir 1:1 model with global fit of Rmax.

In assay [5] the target is T4, V1M/Q62P/S63G cynomolgus GITR on 1624-5 cells (cynomolgus monkey, UniProt Q9Y5U5 26-241 (human entry)).
T4 construct: also called mutant cynomolgus GITR V1M/Q62P/S63G
T4 chain: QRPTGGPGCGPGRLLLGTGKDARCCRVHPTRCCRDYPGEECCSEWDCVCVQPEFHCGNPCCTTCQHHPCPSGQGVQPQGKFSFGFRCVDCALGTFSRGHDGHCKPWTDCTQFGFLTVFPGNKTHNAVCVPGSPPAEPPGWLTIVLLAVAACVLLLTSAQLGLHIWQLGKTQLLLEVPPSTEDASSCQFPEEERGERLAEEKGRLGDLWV
Description: flow cytometry on 1624-5 cells, 2 µg/ml.

Assay [6] has as its target T5, V1M cynomolgus GITR on 1624-5 cells (cynomolgus monkey, UniProt Q9Y5U5 26-241 (human entry)).
T5 chain: T4 chain with P37Q, G38S
In words: flow cytometry on 1624-5 cells.

The target in another assay is T6, recombinant mouse GITR (mouse, UniProt O35714 20-153, limits assumed).
T6 construct: also called Mu GITR recomb protein; immobilized mouse GITR
T6 sequence (looked up): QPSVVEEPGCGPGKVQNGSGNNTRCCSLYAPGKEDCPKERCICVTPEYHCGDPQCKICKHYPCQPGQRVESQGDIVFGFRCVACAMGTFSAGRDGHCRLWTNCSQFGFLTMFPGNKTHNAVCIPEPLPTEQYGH
In words: Western blot, non-reducing. Here is the method: The specificity of the anti-GITR-antibodies was tested by Western blot against purified recombinant human GITR, recombinant mouse GITR, CMS5a cells transfected with human GITR, wild-type CMS5a cells, activated CD4⁺ T cells and untreated CD4⁺ T cells. The Western blot, under non-reducing conditions, is depicted in FIG. 1. The anti-GITR antibodies were reactive with purified recombinant human GITR, not reactive with recombinant mouse GITR, reactive with recombinant human GITR in CMS5a cells, and reactive with natural human GITR in activated CD4⁺ T cells.

Assay [7] addresses T7, purified recombinant human GITR protein (Example 1) (human, UniProt Q9Y5U5 26-162, limits assumed).
T7 construct: also called Hu GITR recomb protein; immobilized huGITR
T7 sequence: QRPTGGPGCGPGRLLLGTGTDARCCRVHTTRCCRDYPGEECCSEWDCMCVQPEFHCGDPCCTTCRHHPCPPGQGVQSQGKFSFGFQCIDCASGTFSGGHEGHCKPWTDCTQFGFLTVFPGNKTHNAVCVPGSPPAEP
In words: SPR (BIAcore), huGITR immobilized on CM5, antibody 6.25-100 nM. As to the method: Analysis of ligand (GITR-L) and monoclonal antibody binding to immobilized huGITR was performed by surface plasmon resonance and measured on BIAcore®. GITR (˜1100 RU) was immobilized onto a CM5 sensor chip using standard amine coupling. Analytes were injected over the immobilized GITR for 15 minutes at a flow rate of 5 μl/min followed by a 10 minute dissociation period. After kinetic runs had been performed the affinity and dissociation constants were simultaneously calculated by BiaEvaluation® software (Biacore Life Sciences). Binding of human GITR-L was analysed over a concentration range of 12.5-200 nM and murine anti-GITR monoclonal antibodies were analysed over a concentration of 6.25-100 nM. […] Affinity and dissociation constants for the antibodies are tabulated below in Table 9.

Substitutions are numbered along the chain they refer to. Numbers in names are those of the source.

Consider “human GITR-L (Example 1, BIAcore analyte) (from UniProt Q9UNG2 49-177) (ligand)”, for which, in assay [1], the Ka was determined as 1.81e+08 M⁻¹ and the Kd was 5.54 nM.

B1: Hum231#2 (antibody, human IgG1, V domains shown)
VH: QVQLVQSGAEVKKPGASVKVSCKGSGYTFTDYAMYWVRQAPGQGLEWIGVIRTYSGDVTYNQKFKDRATMTVDKSISTAYMELSRLRSDDTAVYYCAKSGTVRGFAYWGQGTLVTVSS
VL: DIVMTQSPDSLAVSLGERATINCKSSQSLLNSGNQKNYLTWYQQKPGQPPKLLIYWASTRESGVPDRFSGSGSGTDFTLTISSLQAEDVAVYHCQNDYSYPYTFGQGTKLEIKR
notes: Human IgG1 with T109S (Kabat) in the light chain constant domain; also called humanized variant Hum231#2 (IGHV1-2*02 and IGK4-1*01)
Consider B1, for which, in assay [2], the “percent reduction in binding relative to wild type human GITR” value worked out at 88%. In addition, the “percent reduction in binding relative to wild type human GITR” value in assay [3] came out at 59%. Also, in assay [4], the Kd stood at 0.629 nM, the koff came out at 0.00178 s⁻¹ and the kon was 2.83e+06 M⁻¹ s⁻¹. Moreover, in assay [5], the binding result is listed as “binds”. Also, the binding result in assay [6] is listed as “no binding (tested: 2 µg/ml)”.

B2: m6C8 (antibody, human IgG1, V domains shown)
VH: QVTLKESGPGILKPSQTLSLTCSFSGFSLSTSGMGVGWIRQPSGKGLEWLAHIWWDDDKYYNPSLKSQLTISKDTSRNQVFLKITSVDTADAATYYCARTRRYFPFAYWGQGTLVTVSS
VL: DIVMTQSQKFMSTSVGDRVSVTCKASQNVGTNVAWYQQKPGQSPKALIYSASYRYSGVPDRFTGSGSGTDFTLTINNVHSEDLAEYFCQQYNTDPLTFGAGTKLEIKR
notes: also called murine antibody 6C8
Take B2: the “percent reduction in binding relative to wild type human GITR” value in assay [2] was determined as 10%. The “percent increase in binding relative to wild type human GITR” value in assay [3] came to 62%.

B3: mAb 231-1039-45 (murine) (antibody, mouse IgG1, V domains shown)
VH: QVQLLQSGTELVRPGVSVKISCKGSGYTFTDYAMYWVKQSHAKSLEWIGVIRTYSGDVTYNQKFKDKATMTVDKSSSIAYMELARLSSEDSAIYYCAKSGTVRGFAYWGQGTLVTVSS
VL: DIVMTQSPSSLTVTAGEKVIMSCKSSQSLLNSGNQKNYLTWYQQKPGQPPKLLIYWASTRESGVPDRFTGSGSGTDFTLTISSVQAEDLAVYHCQNDYSYPYTFGGGTKLEIK
notes: Mouse IgG1 from hybridoma
Take B3: the binding result in the assay with recombinant mouse GITR is given as “no binding”. Besides, in assay [7], the Ka worked out at 4.2e+08 M⁻¹ and the Kd turned out to be 2.38 nM.

B4: chimeric parental 231-32-15 antibody (antibody, human IgG1, V domains shown)
VH: B3 VH
VL: B3 VL
notes: Murine variable regions on human IgG1 (CH1-2-3) and human kappa constant regions; T109S (Kabat) in the light chain constant domain
As for B4, the “percent reduction in binding relative to wild type human GITR” value in assay [2] amounted to 82%. In addition, the “percent reduction in binding relative to wild type human GITR” value in assay [3] amounted to 37%. For the same molecule, in assay [4], binding was characterised by a dissociation constant (Kd) of 2.02 nM, the koff stood at 0.000712 s⁻¹ and the kon came out at 352000 M⁻¹ s⁻¹. Moreover, the binding result in assay [5] is listed as “binds”. Further, in assay [6], the binding result is reported as “no binding (tested: 2 µg/ml)”.

B5: mAb 231-32-15 (murine) (antibody, mouse IgG1, V domains shown)
VH: B3 VH
VL: B3 VL
notes: Mouse IgG1 from hybridoma; also called antibody 32-15
Take B5: the binding result with recombinant mouse GITR is “no binding”. In assay [7], the Ka was 4.04e+08 M⁻¹ and the Kd was 2.47 nM.

B6: mAb 231-1333-21 (murine) (antibody, mouse IgG1, V domains shown)
VH: B3 VH
VL: B3 VL
notes: Mouse IgG1 from hybridoma
In the case of B6, the binding result with recombinant mouse GITR is reported as “no binding”. Further, in assay [7], the Ka amounted to 4.19e+08 M⁻¹ and the Kd worked out at 2.39 nM.

B7: mAb 231-1042-7 (murine) (antibody, mouse IgG1, V domains shown)
VH: B3 VH
VL: B3 VL
notes: Mouse IgG1 from hybridoma
For B7, the binding result with recombinant mouse GITR is on record as “no binding”. Besides, in assay [7], the Ka was 4.3e+08 M⁻¹ and the Kd is 2.33 nM.
